Measured values taken from patent publication US11278600B2, “Human alpha-galactosidase variants” (Codexis, Inc., priority 2014, dated 2022).
Numbering of substitutions follows the chain as printed.

B1: 186 (protein)
chain: LDNGLARTPTMGWLHWERFMCNLDCQEEPDSCISEKLFMEMAELMVSEGWKDAGYEYLCIDDCWMAPQRDSEGRLQADPQRFPHGIRQLANYVHSKGLKLGIYADVGNKTCAGFPGSFGYYDIDAQTFADWGVDLLKFDGCYCDSLENLADGYKHMSLALNRTGRSIVYSCEWPLYMWPFQKPNYTEIRQYCNHWRNFADIDDSWKSIKSILDWTSFNQERIVDVAGPGGWNDPDMLVIGNFGLSWNQQVTQMALWAIMAAPLFMSNDLRHISPQAKALLQDKDVIAINQDPLGKQGYQLRQGDNFEVWERPLSGLAWAVAMINRQEIGGPRSYTIAVASLGKGNACNPACFITQLLPVKRKLGFYEWTSRLRSHINPTGTVLLQLENTMQMSKDLLL
modifications: Synthetic Polypeptide sequence of Variant No. 186 of mature Human GLA
B2: 47 (protein)
chain: B1 chain with N345V, E387T
modifications: Synthetic Polypeptide sequence of Variant No. 47 of mature Human GLA
B3: 40 (protein)
chain: B1 chain with N345V, L396R
modifications: Synthetic Polypeptide sequence of Variant No. 40 of mature Human GLA
B4: 191 (protein)
chain: B1 chain with W178S, N345V
modifications: Synthetic Polypeptide sequence of Variant No. 191 of mature Human GLA
B5: 43 (protein)
chain: B1 chain with N345V, E367T
modifications: Synthetic Polypeptide sequence of Variant No. 43 of mature Human GLA
B6: 189 (protein)
chain: B1 chain with V93I, N345V
modifications: Synthetic Polypeptide sequence of Variant No. 189 of mature Human GLA
B7: 46 (protein)
chain: B1 chain with N345V, E387R
modifications: Synthetic Polypeptide sequence of Variant No. 46 of mature Human GLA
B8: 187 (protein)
chain: B1 chain with N345Y
modifications: Synthetic Polypeptide sequence of Variant No. 187 of mature Human GLA
B9: 48 (protein)
chain: B1 chain with E40D, N345V
modifications: Synthetic Polypeptide sequence of Variant No. 48 of mature Human GLA
B10: 44 (protein)
chain: B1 chain with N345V, E387K
modifications: Synthetic Polypeptide sequence of Variant No. 44 of mature Human GLA
B11: 42 (protein)
chain: B1 chain with N345V, E367N
modifications: Synthetic Polypeptide sequence of Variant No. 42 of mature Human GLA
B12: 41 (protein)
chain: B1 chain with N345V, L396T
modifications: Synthetic Polypeptide sequence of Variant No. 41 of mature Human GLA
B13: 45 (protein)
chain: B1 chain with N345V, E387Q
modifications: Synthetic Polypeptide sequence of Variant No. 45 of mature Human GLA
B14: 190 (protein)
chain: B1 chain with W178H, N345V
modifications: Synthetic Polypeptide sequence of Variant No. 190 of mature Human GLA
B15: 49 (protein)
chain: B1 chain with F180R, N345V
modifications: Synthetic Polypeptide sequence of Variant No. 49 of mature Human GLA
B16: 188 (protein)
chain: B1 chain with N345V, V359E
modifications: Synthetic Polypeptide sequence of Variant No. 188 of mature Human GLA

Legend:
Assay type in all cases: biochemical
[1] = HTP-analysis of yeast culture supernatants, no challenge (MUGal hydrolysis); conditions: activity of the variant/activity of WT GLA (SEQ ID NO: 5), yeast supernatant
In short: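 Activity read as 4-methylumbelliferyl α-D-galactopyranoside hydrolysis: fluorescence (355/448 nm) after sodium carbonate stop, following 30-180 min at 37° C with 2 mM MUGal stock at pH 4.6–4.8. Enzyme source is unchallenged culture supernatant of INVSc1 yeast expressing GLA variants, grown 66-84 h at 30° C.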

[2] = HTP-analysis of supernatants pretreated with acid (MUGal hydrolysis); conditions: challenge at pH 4.2; activity of the variant/activity of WT GLA (SEQ ID NO: 5); yeast supernatant
In short: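 Fluorescence of MUGal hydrolysis (Ex. 355 nm, Em. 448 nm) is read after sodium carbonate quench. The enzyme source is INVSc1 yeast culture supernatant, first exposed to pH 3.3-4.3 McIlvaine buffer at 37° C. for 1-3 h, then reacted at pH 4.8 for 30-180 minutes.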

[3] = HTP-analysis of supernatants pretreated with base (MUGal hydrolysis); conditions: challenge at pH 7.1; activity of the variant/activity of WT GLA (SEQ ID NO: 5); yeast supernatant
In short: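 Supernatants from INVSc1 yeast expressing GLA variants (SD-Ura, 66-84 h, 30° C) were mixed with McIlvaine buffer pH 7.0-8.2 or 200 mM sodium bicarbonate pH 9.1-9.7 and held 1-18 h at 37° C. Residual activity was then measured on MUGal at pH 4.8/4.3, 37° C, 30-180 min, by fluorescence (Ex 355/Em 448 nm).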

| Molecule | Relative Activity of GLA Variants After No Challenge (NC) [1] | Relative Activity of GLA Variants After Challenge at pH 4.2 [2] | Relative Activity of GLA Variants After Challenge at pH 7.1 [3] |
| --- | --- | --- | --- |
| B1 | ++ (++ = >1.5 to 2.5 relative activity over WT GLA (SEQ ID NO: 5)) | ++ (++ = >1.5 to 2.5 relative activity over WT GLA (SEQ ID NO: 5)) | +++ (+++ = >2.5 relative activity over WT GLA (SEQ ID NO: 5)) |
| B2 | + (+ = 0.5 to 1.5 relative activity over WT GLA (SEQ ID NO: 5)) | ++ (++ = >1.5 to 2.5 relative activity over WT GLA (SEQ ID NO: 5)) | + (+ = 0.5 to 1.5 relative activity over WT GLA (SEQ ID NO: 5)) |
| B3 | ++ (++ = >1.5 to 2.5 relative activity over WT GLA (SEQ ID NO: 5)) | ++ (++ = >1.5 to 2.5 relative activity over WT GLA (SEQ ID NO: 5)) | ++ (++ = >1.5 to 2.5 relative activity over WT GLA (SEQ ID NO: 5)) |
| B4 | + (+ = 0.5 to 1.5 relative activity over WT GLA (SEQ ID NO: 5)) | ++ (++ = >1.5 to 2.5 relative activity over WT GLA (SEQ ID NO: 5)) | + (+ = 0.5 to 1.5 relative activity over WT GLA (SEQ ID NO: 5)) |
| B5 | + (+ = 0.5 to 1.5 relative activity over WT GLA (SEQ ID NO: 5)) | + (+ = 0.5 to 1.5 relative activity over WT GLA (SEQ ID NO: 5)) | + (+ = 0.5 to 1.5 relative activity over WT GLA (SEQ ID NO: 5)) |
| B6 | + (+ = 0.5 to 1.5 relative activity over WT GLA (SEQ ID NO: 5)) | + (+ = 0.5 to 1.5 relative activity over WT GLA (SEQ ID NO: 5)) | + (+ = 0.5 to 1.5 relative activity over WT GLA (SEQ ID NO: 5)) |
| B7 | + (+ = 0.5 to 1.5 relative activity over WT GLA (SEQ ID NO: 5)) | +++ (+++ = >2.5 relative activity over WT GLA (SEQ ID NO: 5)) | + (+ = 0.5 to 1.5 relative activity over WT GLA (SEQ ID NO: 5)) |
| B8 | + (+ = 0.5 to 1.5 relative activity over WT GLA (SEQ ID NO: 5)) | + (+ = 0.5 to 1.5 relative activity over WT GLA (SEQ ID NO: 5)) | + (+ = 0.5 to 1.5 relative activity over WT GLA (SEQ ID NO: 5)) |
| B9 | + (+ = 0.5 to 1.5 relative activity over WT GLA (SEQ ID NO: 5)) | + (+ = 0.5 to 1.5 relative activity over WT GLA (SEQ ID NO: 5)) | + (+ = 0.5 to 1.5 relative activity over WT GLA (SEQ ID NO: 5)) |
| B10 | + (+ = 0.5 to 1.5 relative activity over WT GLA (SEQ ID NO: 5)) | ++ (++ = >1.5 to 2.5 relative activity over WT GLA (SEQ ID NO: 5)) | + (+ = 0.5 to 1.5 relative activity over WT GLA (SEQ ID NO: 5)) |
| B11 | +++ (+++ = >2.5 relative activity over WT GLA (SEQ ID NO: 5)) | +++ (+++ = >2.5 relative activity over WT GLA (SEQ ID NO: 5)) | +++ (+++ = >2.5 relative activity over WT GLA (SEQ ID NO: 5)) |
| B12 | + (+ = 0.5 to 1.5 relative activity over WT GLA (SEQ ID NO: 5)) | + (+ = 0.5 to 1.5 relative activity over WT GLA (SEQ ID NO: 5)) | + (+ = 0.5 to 1.5 relative activity over WT GLA (SEQ ID NO: 5)) |
| B13 | ++ (++ = >1.5 to 2.5 relative activity over WT GLA (SEQ ID NO: 5)) | ++ (++ = >1.5 to 2.5 relative activity over WT GLA (SEQ ID NO: 5)) | ++ (++ = >1.5 to 2.5 relative activity over WT GLA (SEQ ID NO: 5)) |
| B14 | ++ (++ = >1.5 to 2.5 relative activity over WT GLA (SEQ ID NO: 5)) | + (+ = 0.5 to 1.5 relative activity over WT GLA (SEQ ID NO: 5)) | ++ (++ = >1.5 to 2.5 relative activity over WT GLA (SEQ ID NO: 5)) |
| B15 | + (+ = 0.5 to 1.5 relative activity over WT GLA (SEQ ID NO: 5)) | + (+ = 0.5 to 1.5 relative activity over WT GLA (SEQ ID NO: 5)) | + (+ = 0.5 to 1.5 relative activity over WT GLA (SEQ ID NO: 5)) |
| B16 | + (+ = 0.5 to 1.5 relative activity over WT GLA (SEQ ID NO: 5)) | + (+ = 0.5 to 1.5 relative activity over WT GLA (SEQ ID NO: 5)) | + (+ = 0.5 to 1.5 relative activity over WT GLA (SEQ ID NO: 5)) |
